Measurements from PMC4691890 (2015).

Molecular target: horse CytC K87W (horse, UniProt P00004 1-105, K87W)
Experiment: ITC

Ka: 1.24e+06 M⁻¹
B1: full-length human Apaf-1 (residues 1–1248) (natural protein)
chain: MDAKARNCLLQHREALEKDIKTSYIMDHMISDGFLTISEEEKVRNEPTQQQRAAMLIKMILKKDNDSYVSFYNALLHEGYKDLAALLHDGIPVVSSSSGKDSVSGITSYVRTVLCEGGVPQRPVVFVTRKKLVNAIQQKLSKLKGEPGWVTIHGMAGCGKSVLAAEAVRDHSLLEGCFPGGVHWVSVGKQDKSGLLMKLQNLCTRLDQDESFSQRLPLNIEEAKDRLRILMLRKHPRSLLILDDVWDSWVLKAFDSQCQILLTTRDKSVTDSVMGPKYVVPVESSLGKEKGLEILSLFVNMKKADLPEQAHSIIKECKGSPLVVSLIGALLRDFPNRWEYYLKQLQNKQFKRIRKSSSYDYEALDEAMSISVEMLREDIKDYYTDLSILQKDVKVPTKVLCILWDMETEEVEDILQEFVNKSLLFCDRNGKSFRYYLHDLQVDFLTEKNCSQLQDLHKKIITQFQRYHQPHTLSPDQEDCMYWYNFLAYHMASAKMHKELCALMFSLDWIKAKTELVGPAHLIHEFVEYRHILDEKDCAVSENFQEFLSLNGHLLGRQPFPNIVQLGLCEPETSEVYQQAKLQAKQEVDNGMLYLEWINKKNITNLSRLVVRPHTDAVYHACFSEDGQRIASCGADKTLQVFKAETGEKLLEIKAHEDEVLCCAFSTDDRFIATCSVDKKVKIWNSMTGELVHTYDEHSEQVNCCHFTNSSHHLLLATGSSDCFLKLWDLNQKECRNTMFGHTNSVNHCRFSPDDKLLASCSADGTLKLWDATSANERKSINVKQFFLNLEDPQEDMEVIVKCCSWSADGARIMVAAKNKIFLFDIHTSGLLGEIHTGHHSTIQYCDFSPQNHLAVVALSQYCVELWNTDSRSKVADCRGHLSWVHGVMFSPDGSSFLTSSDDQTIRLWETKKVCKNSAVMLKQEVDVVFQENEVMVLAVDHIRRLQLINGRTGQIDYLTEAQVSCCCLSPHLQYIAFGDENGAIEILELVNNRIFQSRFQHKKTVWHIQFTADEKTLISSSDDAEIQVWNWQLDKCIFLRGHQETVKDFRLLKNSRLLSWSFDGTVKVWNIITGNKEKDFVCHQGTVLSCDISHDATKFSSTSADKTAKIWSFDLLLPLHELRGHNGCVRCSAFSVDSTLLATGDDNGEIRIWNVSNGELLHLCAPLSEEGAATHGGWVTDLCFSPDGKMLISAGGYIKWWNVVTGESSQTFYTNGTNLKKIHVSPDFKTYVTVDNLGILYILQTLE
